The target of test [1] is T1, His-tagged Hdm2 210-304 (human, UniProt Q00987 210-304).
T1 construct: Captured on the C-1 chip by anti-His antibody for the Arf peptide library SPR; Tag placed first here
In words: SPR, His-tagged Hdm2 210-304 captured by anti-His antibody, peptide injected 10 min, signal minus reference cell [a]. How it is done: (§1) Reactive sites remaining on the surface were blocked by reaction with ethanolamine. The His-tagged ligand was attached to the antibody by injecting a 5-10 μg/ml solution of the ligand in 10 mM HEPES, 150 mM NaCl, pH 7.4 (HBS-N buffer, Biacore) at a flow rate of 10 μL/min through the flow cell. A reference cell was prepared similarly except that no His-tagged ligand was added. Binding was measured by flowing the non-His-tagged analyte through the reference and ligand-containing flow cells in sequence. Prior to injection of ligands, the chip surfaces were equilibrated in HBS-N buffer. Changes in the SPR response due to solvent differences and the injection process were monitored by injection of HBS-N buffer alone. Regeneration of the chip surface to remove bound analyte and ligand was accomplished by two 100 μL injections of 10 mM glycine, pH 2.0 through both flow cells. Data reported is the difference in SPR signal between the flow cell containing analyte and the reference cell. Duplicate injections were made and the SPR response values reported are the average of these two injections.
(§2) Two libraries of peptides 15 amino acids in length were synthesized based on the sequence of exon 1β of mouse p19^Arf and the entire sequence of human p14^Arf. The sequence for the first peptide in each library corresponded to the first 15 amino acids of the protein sequences. […] This approach yielded two libraries of overlapping peptides spanning mouse p19^Arf residues 1-64 and human p14^Arf residues 1-132. The ability of these peptides to bind Hdm2 fragments was determined using the surface plasmon resonance (SPR) technique with a Biacore 3000 instrument. […] Library peptides were allowed to flow over the Hdm2 surface, or over a control surface lacking an Hdm2 fragment.
A general note: In SPR one partner is held on a chip, and binding of the other changes the refractive index at the surface.

Test [2] has as its target T2, Hdm2 peptide, residues 275-289 of SEQ ID NO:8 (H2 segment) (human).
T2 construct: also called H2 peptide; one from the H2 segment
T2 peptide: Ac-VYQVTVYQAGESDTD-NH2
Put plainly: CD titration, failure to induce structure.

The target of test [3] is T3, Hdm2 210-304 (residues 210-304 of SEQ ID NO:8, His tag cleaved) (human, UniProt Q00987 210-304).
T3 construct: Non-His-tagged analyte in SPR; also used in CD, NMR, gel filtration
T3 sequence (Q00987 210-304): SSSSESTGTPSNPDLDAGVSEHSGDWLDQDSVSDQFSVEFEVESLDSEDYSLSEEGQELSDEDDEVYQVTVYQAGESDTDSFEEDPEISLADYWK
Put plainly: CD-based binding assay.

Test [4] deals with T4, Hdm2 210-275 (residues 210-275 of SEQ ID NO:8, His tag cleaved) (human, UniProt Q00987 210-275). In words: CD-based binding assay.
T4 sequence (Q00987 210-275): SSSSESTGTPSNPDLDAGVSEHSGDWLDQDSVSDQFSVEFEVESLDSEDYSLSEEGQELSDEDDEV
Test [5] has as its target T5, His-tagged mArfN37 (N-terminal 37 amino acids of mouse p19Arf with poly-His tag) (mouse).
T5 construct: Captured on the SPR chip by a covalently linked anti-His antibody; Tag placed first here; also called His-mArfN37; His-tagged mArf37
T5 chain: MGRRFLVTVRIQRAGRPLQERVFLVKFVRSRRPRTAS
In words: SPR, His-tagged mArfN37 captured by anti-His antibody, peptide injected, signal minus reference cell [c]. How it is done:
as §1, with “Binding studies were performed using a Biacore 3000 surface plasmon resonance (SPR) instrument (Biacore, Inc.). A Tetra-His™ Antibody (Qiagen, Inc.; Cat. #34670) was covalently attached to a carboxymethylated gold surface (C-1 chip; Biacore, Inc.). The carboxymethyl groups on the surface were activated with N-ethyl-N′-(3-dimethylaminopropyl) carbodiimide (EDC) and N-hydroxysuccinimide (NHS) and the antibody was attached at pH 7.4 in 20 mM sodium phosphate buffer, 150 mM NaCl (PBS). Reactive” for “Reactive”
A similar approach using short synthetic peptides and SPR was used to map the segments of Hdm2 that bind mArfN37 (FIG. 5c). […] The first of these as Arf-binding segment is termed “H1” and the second is termed segment “H2”.

For test [6], the target named is T1, His-tagged Hdm2 210-304. Put plainly: SPR, His-tagged Hdm2 210-304 captured by anti-His antibody, peptide injected 10 min, signal minus reference cell [b]. How it is done: as §1, §2
For test [7], the target named is T3, Hdm2 210-304 (residues 210-304 of SEQ …). In words: CD titration, ellipticity at 200 nm. How it is done:
(§3) Further, saturable binding is also observed when the Hdm2 fragments were added to an excess of mArfN37.

Test [8] addresses T4, Hdm2 210-275 (residues 210-275 of SEQ …). Put plainly: CD titration, ellipticity at 200 nm. How it is done: as §3

Where no end group is shown, it is not given here.

T1 sequence (Q00987 210-304): as the sequence (Q00987 210-304) above

B1: 6-20 (mouse Arf peptide) (peptide)
peptide: Ac-LVTVRIQRAGRPLQE-NH2
notes: also called mouse p19Arf library peptide, residues 6-20
Turning to B1, in test [1], the binding result is “binds”.

B2: mouse Arf motif peptide A1 (1-14) (peptide)
peptide: Ac-MGRRFLVTVRIQRA-NH2
notes: the peptide tested spans 1-14; also called mouse A1
In the case of B2, the values for the binding result in test [2], in test [3] and in test [4] were “no binding (tested: 1-10 µM (concentrations used))”, “binds” and “binds”, respectively.

B3: 1-15 (mouse Arf peptide) (peptide)
peptide: Ac-MGRRFLVTVRIQRAG-NH2
notes: also called mouse p19Arf library peptide, residues 1-15
Take B3: the binding result in test [1] is given as “binds”.

B4: 335-349 (Hdm2 peptide) (peptide)
peptide: Ac-GKDKGEISEKAKLEN-NH2
notes: also called Hdm2 library peptide, residues 335-349
For the molecule B4, in test [5], the binding result is reported as “no binding”.
As to Ac-RRPRTASCALAFVNM-NH2 [mouse p19Arf library peptide, residues 31-45 (contains the NoLS RRPR)], in test [1], the binding result is “binds”.

B5: mouse Arf motif peptide A2 (16-30) (peptide)
peptide: Ac-RPLQERVFLVKFVRS-NH2
notes: Same limits as the fourth peptide of the mouse library, so possibly a member of group m12; also called mouse A2
For the molecule B5, the binding result in test [1] is listed as “binds”; in test [2], “no binding (tested: 1-10 µM (concentrations used))”; in test [3], “binds”; in test [4], “no binding”.

B6: human Arf motif peptide A1 (1-14) (peptide)
peptide: Ac-MVRRFLVTLRIRRA-NH2
notes: the peptide tested spans 1-14; also called human A1
Take B6: the binding result in test [2] is “no binding (tested: 1-10 µM (concentrations used))”; in test [3], “binds”; in test [4], “binds”.

B7: 21-35 (mouse Arf peptide) (peptide)
peptide: Ac-RVFLVKFVRSRRPRT-NH2
notes: also called mouse p19Arf library peptide, residues 21-35
Regarding B7, the binding result in test [1] was “binds”.

B8: 11-25 (mouse Arf peptide) (peptide)
peptide: Ac-IQRAGRPLQERVFLV-NH2
notes: also called mouse p19Arf library peptide, residues 11-25
Regarding B8, the binding result in test [1] is given as “no binding”.

B9: 26-40 (mouse Arf peptide) (peptide)
peptide: Ac-KFVRSRRPRTASCAL-NH2
notes: also called mouse p19Arf library peptide, residues 26-40
As to B9, the binding result in test [1] is given as “binds”.

B10: 330-344 (Hdm2 peptide) (peptide)
peptide: Ac-LPEDKGKDKGEISEK-NH2
notes: also called Hdm2 library peptide, residues 330-344
B10: the binding result in test [5] is “no binding”.

B11: 41-55 (mouse Arf peptide) (peptide)
peptide: Ac-AFVNMLLRLERILRR-NH2
notes: also called mouse p19Arf library peptide, residues 41-55
B11: in test [1], the binding result is reported as “no binding”.

B12: human p14Arf peptide, residues 16-30 (contains the human A2 motif) (peptide)
peptide: Ac-GPPRVRVFVVHIPRL-NH2
notes: the peptide tested is the 15-mer 16-30; also called fourth peptide of the human library; human A2 (16-30)
Consider B12, for which the binding result is given as “binds” in test [6], “no binding (tested: 1-10 µM (concentrations used))” in test [2], “binds” in test [3] and “no binding” in test [4].

B13: mArfN37 (N-terminal fragment of mouse p19Arf, residues 1-37, His tag cleaved) (peptide)
chain: T5 chain
modifications: not fully specified
notes: Tag-cleaved form used in CD, NMR and gel filtration; also called 15N-mArfN37
Broadly, the Kd is the constant that tells how readily two partners part at equilibrium. B13: the Kd in test [7] and in test [8] was < 5 µM in each case.

B14: 325-339 (Hdm2 peptide) (peptide)
peptide: Ac-LRENWLPEDKGKDKG-NH2
notes: also called Hdm2 library peptide, residues 325-339
Consider B14, for which the binding result in test [5] is “no binding”.

Values taken from US20020045192A1 (ST JUDE CHILDREN S RESEARCH HOSPITAL, published 2002).
